Data taken from paper doi:10.1101/2020.08.31.274639.

Target: SARS-CoV-2 main protease 3CLpro (SARS-CoV-2)
Experiment: crystal structure

SARS-CoV-2 main protease 3CLpro (enzyme)
stoichiometry N: 2
